Reference: publication PMC2133975

Experiments:
[1] = target: axonin-1, recombinant, expressed on the surface of COS-7 cells (chicken) (UniProt P28685); assay: binding of protein-conjugated fluorescent microspheres
[2] = target: NgCAM, recombinant, expressed on the surface of COS-7 cells (chicken); assay: as above

Row | percent of expressing cells that bound Covaspheres [1] | percent of expressing cells that bound Covaspheres [2] | Molecule
1 | 15% | 61% | NgCAM purified from chicken brain membranes, conjugated to Covaspheres (from UniProt Q03696 21-1266) (natural protein)
2 |  | 53% | axonin-1 purified from the ocular vitreous fluid of chicken embryos, conjugated to Covaspheres (natural protein) QSGMRSYGPVFEEQPAHTLFPEGSAEEKVTLTCRARANPPATYRWKMNGTELKMGPDSRYRLVAGDLVISNPVKAKDAGSYQCVATNARGTVVSREASLRFGFLQEFSAEERDPVKITEGWGVMFTCSPPPHYPALSYRWLLNEFPNFIPADGRRFVSQTTGNLYIAKTEASDLGNYSCFATSHIDFITKSVFSKFSQLSLAAEDARQYAPSIKAKFPADTYALTGQMVTLECFAFGNPVPQIKWRKLDGSQTSKWLSSEPLLHIQNVDFEDEGTYECEAENIKGRDTYQGRIIIHAQPDWLDVITDTEADIGSDLRWSCVASGKPRPAVRWLRDGQPLASQNRIEVSGGELRFSKLVLEDSGMYQCVAENKHGTVYASAELTVQALAPDFRLNPVKRLIPAARSGKVIIPCQPRAAPKATVLWTKGTELLTNSSRVTITADGTLILQNISKSDEGKYTCFAENFMGKANSTGILSVRDATKITLAPSSADINVGENLTLQCHASHDPTMDLTFTWSLDDFPIDLDKSEGHYRRASVKEAVGDLAIVNAQLKHSGRYTCTAQTVVDSTSESATLTVRGPPGPPGGVVVRDIGDTTVQLSWSRGFDNHSPIARYSIEARTLLSNKWKQMRTNPVNIEGNAETAQVVNLIPWMDYEFRVLASNILGVGEPSLPSSKIRTKEAAPTVAPSGLGGGGGAPNELIINWTPTLRDYQNGDGFGYILSFRKKGTQGWLTARVPHAESLHYVYRNESIGPYTPFEVKIKAYNRKGEGPESLTAIVYSAEEEPKVAPFRVTAKAVLSSEMDVSWEPVEQGDMTGVLLGYEIRYWKDGDKEEAADRVRTAGLVTSAHVTGLNPNTKYHVSVRAYNRAGAGPPSPSTNITTTKPPPRRPPGNISWTLTGSTVTIKWDPVVAQADESAVTGYKMLYRQDSHSAPTLYLASKSRIDIPVPEDFTHAFVQIRVTGPGGDGTPAEVHIVRNSGTSMMVEDSVTRPVPHAAIITTNSLAMVALIRYLEL
